Molecular target: the molecule itself
Assay: in vitro polymerisation into needles, seen by transmission electron microscopy and solid-state NMR; purified subunit polymerised at 0.2 mM, 37°C, sixteen days; needles ultra-centrifuged for magic-angle spinning solid-state NMR at 5.5°C

B1: MxiH, wild-type Shigella flexneri T3SS needle subunit (recombinant, His tag cleaved) (natural protein)
chain: GHMSVTVPDKDWTLSSLSETFDDGTQTLQGQLTSALNALAENPSNPQLLAEYQSKLSEYTLYRNAQSNTVKVIKDVDAAIIQNFR
modifications: 15N and 13C isotope labelling
notes: non-native N-terminal residues glycine and histidine left after cleavage by tobacco etch virus protease (told in words); MxiH, T3SS needle subunit, Shigella flexneri serotype 6, residues Met1 to R83; Helical homopolymer (needle); also called WT MxiH; WT Shigella T3SS needles; source: polymerized in vitro; not shown: hepta-Histidine (His) tag, N-terminal, cleaved
binding result: binds

From publication PMC3605151, “The Common Structural Architecture of Shigella flexneri and Salmonella typhimurium Type Three Secretion Needles” (PLoS Pathogens, 2013)
